Data as given in US11448657B2, “Methods and kits for assessing Heparanase procoagulant activity, compositions comprising Heparanase, and methods for the treatment of coagulation-related disorders” (RAMBAM MED-TECH, priority 2011, dated 2022).
Entries after “also recorded” stand apart in the source; their conditions may differ.

Legend:
[1] = target: T1, TF-factor VIIa complex (Homo sapiens, UniProt P13726); assay: Activated factor X generation assay with purified TF, factor VIIa and factor X (chromogenic substrate); type: biochemical
T1 construct: purchased American Diagnostica (Stanford, Conn., USA)
T1 sequence (P13726 33-295): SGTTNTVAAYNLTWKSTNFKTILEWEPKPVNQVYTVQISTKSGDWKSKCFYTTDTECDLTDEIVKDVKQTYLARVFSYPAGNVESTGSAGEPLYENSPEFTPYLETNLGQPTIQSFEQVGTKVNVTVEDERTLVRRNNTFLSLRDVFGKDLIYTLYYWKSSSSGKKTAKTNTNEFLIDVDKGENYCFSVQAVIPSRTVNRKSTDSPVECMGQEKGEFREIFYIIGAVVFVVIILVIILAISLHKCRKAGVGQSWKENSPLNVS
T1 sequence (P08709 61-212 partner limits assumed): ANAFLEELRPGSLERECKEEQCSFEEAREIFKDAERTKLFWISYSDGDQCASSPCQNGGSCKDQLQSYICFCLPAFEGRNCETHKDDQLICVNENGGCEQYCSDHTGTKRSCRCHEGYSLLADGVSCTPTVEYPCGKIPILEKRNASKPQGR
T1 sequence (P08709 213-466 partner limits assumed): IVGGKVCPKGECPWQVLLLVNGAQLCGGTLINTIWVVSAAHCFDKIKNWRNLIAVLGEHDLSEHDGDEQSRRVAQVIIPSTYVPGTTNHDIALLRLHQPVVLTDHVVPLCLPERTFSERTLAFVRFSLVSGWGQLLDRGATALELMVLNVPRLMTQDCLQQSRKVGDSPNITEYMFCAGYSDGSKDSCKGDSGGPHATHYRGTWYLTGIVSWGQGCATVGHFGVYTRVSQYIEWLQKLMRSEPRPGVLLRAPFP
Protocol: FIG. 1A. Recombinant human TF, recombinant human factor VIIa, and plasma-derived human factor X were incubated (15 min, 37° C.) in a total assay volume of 125 μL. Chromogenic substrate for the detection of factor Xa was then added (final concentration 1 mM). Recombinant active heparanase GS3 (Hepa) was added prior to the addition of the coagulation factors. The mean value±SD of three independent experiments in shown. […]
FIG. 1C. […] The mean value of two experiments is shown. Note a 2-fold increase in coagulation activity when the medium contained heparanase or its derivatives.
Following preliminary experiments to quantify the appropriate protein doses, we performed a basic experiment of factor Xa generation in the following manner: the concentrations mentioned are the final concentrations. Lipidated recombinant human TF (0.004 μM, […]), recombinant human factor VIIa (0.04 μM) and plasma-derived human factor X (1.4 μM) were incubated in 50 μL assay buffer (0.06 M Tris, 0.04 M NaCl, 2 mM CaCl 2, 0.04% bovine serum albumin, pH 8.4) to a total volume of 125 μL in a 96-well sterile plate. After 15 min at 37° C., chromogenic substrate for factor Xa was added (1 mM). After 20 min, the reaction was stopped with 50 μL of glacial acetic acid and the level of factor Xa generation was determined using an enzyme-linked immunosorbent assay (ELISA) plate reader (Power Wave XS, BIO-TEK, VT, USA). In order to visualize the increased production of factor Xa by western blotting, the experiment was repeated with 7 μM factor X. After 15 min at 37° C., half of the reaction volume was subjected to blotting using monoclonal anti-human factor X/Xa heavy chain antibody.
The factor Xa generation assay was performed as described in the Design and Methods section with increasing doses of recombinant human heparanase (GS3) added prior to the addition of the coagulation factors. […] It should be noted that factor X is composed of two polypeptide chains, a heavy chain with a molecular weight of 38 kDa and a light chain with a molecular weight of 18 kDa joined by a dipeptide Arg-Arg. The factor VIIa-TF complex activates the conversion of factor X to factor Xa by cleaving the heavy chain to a 33 kDa peptide. […] In order to exclude contamination of the heparanase preparation during the routine procedure of purification described in the Design and Methods section, the inventors tested the effect of overnight serum-free without phenol medium of 293 HEK cells over-expressing heparanase and its derivatives compared to mock. The proteins were further purified from the culture medium and analyzed. Similar quantities of proteins were obtained from the culture media.

[2] = test system: whole blood; assay: Thromboelastography in citrated whole blood; set-up: species or system human
Protocol: Thromboelastogram studies. The assay includes addition of factor VIIa, X and calcium to blood drawn into citrate in the presence or absence of heparanase. Each time, a sample with addition of heparanase (Hepa) and a sample without (Con)—were analyzed in parallel. R—The period of latency from the time that the blood was placed in the analyzer until the initial fibrin formation: this represents the coagulation factor activation.
Angle—measures the rapidity of fibrin build-up and cross-linking: this represents the coagulation factor amplification. MA—A direct function of the maximum dynamic properties of fibrin and platelet bonding: signifies the ultimate strength of the clot. […] Representative results are shown.
The assay was performed according to the manufacturer's recommendations. Briefly, 3 mL of healthy donor's whole blood were collected in a bottle containing 3.2% (0.12M) sodium citrate and stored at room temperature. Recalcification and TEG® measurements at 37° C. were performed in disposable cups of the Thrombelastograph® coagulation analyzer (Haemoscope Corporation, Skokie, Ill., USA).
Next, the procoagulant effect of heparanase in human plasma was tested. Using an ELISA method [Shafat I. et al., Biochem Biophys Res. Commun. […] When heparanase, factor VIIa and factor X were incubated (15 min, 37° C.) with pooled normal human plasma from five healthy donors, followed by the addition of a chromogenic substrate for factor Xa, a 7- to 8-fold increase in factor Xa levels was obtained com-pared to levels in plasma incubated in the absence of heparanase (FIG. 2). In this condition the coagulation was mainly dependent on the concentration of endogenous TF, as described previously [Suefuji H. et al., Am Heart J. 1997, 134(2 Pt. 1):253-259; Kim H K et al., Cardiology. 2000, 93(1-2):31-36]. The effect of heparanase was also tested in whole blood using thromboelastography. […]

increase in coagulation activity (factor Xa level) ([1]; TF, factor VIIa, factor X, 15 min 37° C., heparanase added prior to the coagulation factors): 2 fold
effect on Xa generation at reduced factor VIIa ([1]; absence of sufficient factor VIIa): effect of heparanase was abolished
increase in factor Xa levels ([1]; overnight serum-free medium of 293 HEK cells over-expressing heparanase species, compared to mock): 2 fold
Xa generation at reduced TF ([1]; very low levels of TF (3.13 μg)): increased Xa generation by three folds
factor Xa generation in incomplete reaction mixture ([1]; without TF, factor VIIa or factor X, or with inactivated VIIa): Factor Xa was not generated
B1: heparanase: single chain GS3 active heparanase, comprised of the 8 kDa and 50 kDa heparanase heterodimer (8+50), recombinant human (protein, listed as Homo sapiens)
chain 1: DPAQDVVDLDFFTQEPLHLVSPSFLSVTIDANLATDPRFLILLGSPKLRTLARGLSPAYLRFGGTKTDFLIFDPKKE
chain 2: DPGKKFKNSTYSRSSVDVLYTFANCSGLDLIFGLNALLRTADLQWNSSNAQLLLDYCSSKGYNISWELGNEPNSFLKKADIFINGSQLGEDFIQLHKLLRKSTFKNAKLYGPDVGQPRRKTAKMLKSFLKAGGEVIDSVTWHHYYLNGRTATREDFLNPDVLDIFISSVQKVFQVVESTRPGKKVWLGETSSAYGGGAPLLSDTFAAGFMWLDKLGLSARMGIEVVMRQVFFGAGNYHLVDENFDPLPDYWLSLLFKKLVGTKVLMASVQGSKRRKLRVYLHCTNTDNPRYKEGDLTLYAINLHNVTKYLRLPYPFSNKQVDKYLLRPLGPHGLLSKSVQLNGLTLKMVDDQTLPPLMEKPLRPGSSLGLPAFSYSFFVIRNAKVAACI
modifications: single-chain GS3 linker
time to clot formation (R) at the highest dose ([2]; heparanase 4 μM): effect on time to clot formation was abolished; also recorded: no effect on R is detected
thrombus strength (MA) ([2]; increasing doses of heparanase): increase in thrombus strength; also recorded: stronger
time to clot formation (R) ([2]; increasing doses of heparanase, factor VIIa 0.04 μM, factor X 1.4 μM, recalcified blood): significant reduction in time to clot formation; also recorded: significantly faster
